Measured values reported in patent US8173771B2, “Humanin receptor or humanin-like polypeptide receptor” (Keio Univeristy, priority 2005, dated 2012).
One block for each binder: values may come before it. Ends that are not written are not given here.

Key:
rat IL-6R [1] = target: T1, rat IL-6R (rat, UniProt P22273 20-462); assay: pull-down with HN-Sepharose 4B from lysates of transfected F11 cells, immunoblot
T1 construct: Overexpressed in F11 cells; stood in the cell lysate in the pull-down assay; also called IL-6 receptor; rat IL-6R (V6 tagged); not shown: printed as 'V6 tagged'
T1 sequence (looked up): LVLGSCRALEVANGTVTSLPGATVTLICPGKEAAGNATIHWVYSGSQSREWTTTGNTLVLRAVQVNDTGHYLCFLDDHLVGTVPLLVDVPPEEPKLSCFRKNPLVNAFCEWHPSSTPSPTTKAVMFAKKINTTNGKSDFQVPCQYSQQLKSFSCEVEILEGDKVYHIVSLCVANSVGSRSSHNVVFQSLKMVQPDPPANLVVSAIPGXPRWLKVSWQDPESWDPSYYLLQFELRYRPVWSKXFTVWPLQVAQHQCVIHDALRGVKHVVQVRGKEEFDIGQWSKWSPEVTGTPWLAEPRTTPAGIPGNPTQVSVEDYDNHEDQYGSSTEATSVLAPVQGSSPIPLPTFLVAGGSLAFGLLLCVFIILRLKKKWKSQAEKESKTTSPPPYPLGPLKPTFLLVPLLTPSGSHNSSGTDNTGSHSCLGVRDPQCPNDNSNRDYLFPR
Procedure: (§1) WSX-1, CNTF-R, and IL-6 were over-expressed in F11 cells and the pull down assay was made using the above 4B bead.
(§2) F11 cells (7×10^4/well in 6-well plates) were transfected with the plasmids encoding mycHis-WSX-1, V5-CNTF-R or rat IL-6R (V6 tagged). […] The beads were then reacted with a blocking buffer (0.2M glycine, pH 8.0) for 2 hrs at a room temperature, washed with the coupling buffer and stored at 4° C. for use in pull-down assay. For each pull-down assay, 20 μl of 1:1 slurry of Sepharose was used for 100 μl of the cell lysate.

[2] = target: T2, Humanin receptor (HNR) overexpressed in F11 cells: human CNTF-R/WSX-1/gp130 (human, UniProt P26992 23-342; Q6UWB1 33-636; P40189 23-918); assay: cold competitor in binding assay (2), F11 cells transfected with human CNTF-R/WSX-1/gp130
T2 construct: whole, on cells; The three human subunits co-transfected into F11 cells, which also carry the endogenous receptor; also called both the CNTF receptor and WSX-1; not shown: C-terminal V5 tag; C-terminal myc-His tag
T2 sequence (P40189 23-918, one chain of several): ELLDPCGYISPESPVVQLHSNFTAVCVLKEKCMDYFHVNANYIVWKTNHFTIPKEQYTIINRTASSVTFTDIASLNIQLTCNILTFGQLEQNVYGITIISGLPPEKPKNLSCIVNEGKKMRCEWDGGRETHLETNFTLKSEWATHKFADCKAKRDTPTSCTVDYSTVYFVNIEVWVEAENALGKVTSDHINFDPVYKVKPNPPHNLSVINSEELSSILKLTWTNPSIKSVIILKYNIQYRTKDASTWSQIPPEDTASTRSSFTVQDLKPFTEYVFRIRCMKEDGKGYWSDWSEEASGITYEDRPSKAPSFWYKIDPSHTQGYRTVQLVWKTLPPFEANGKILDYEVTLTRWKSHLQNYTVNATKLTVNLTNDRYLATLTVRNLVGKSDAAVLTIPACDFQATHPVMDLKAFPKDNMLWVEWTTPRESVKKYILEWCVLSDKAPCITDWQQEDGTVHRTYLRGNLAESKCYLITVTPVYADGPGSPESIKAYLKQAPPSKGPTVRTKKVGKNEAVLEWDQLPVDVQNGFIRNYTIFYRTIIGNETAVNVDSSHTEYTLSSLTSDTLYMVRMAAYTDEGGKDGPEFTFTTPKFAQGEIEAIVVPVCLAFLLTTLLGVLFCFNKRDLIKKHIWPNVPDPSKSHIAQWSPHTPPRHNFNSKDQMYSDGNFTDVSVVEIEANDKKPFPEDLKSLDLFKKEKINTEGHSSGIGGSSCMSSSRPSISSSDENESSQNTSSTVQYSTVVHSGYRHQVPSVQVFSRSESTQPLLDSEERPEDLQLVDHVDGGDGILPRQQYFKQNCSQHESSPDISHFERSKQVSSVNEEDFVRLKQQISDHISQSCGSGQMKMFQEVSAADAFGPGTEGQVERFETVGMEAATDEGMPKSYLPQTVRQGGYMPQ
Procedure: A) F11 cells were seeded on 96-well plates coated with poly-L-lysine (7 ×10^3 cells/well). […] On the other hand, F11 cells were transfected with 0.5 μg of pcDNA3.1/GS-human CNTF-R, pEF1/MycHis-human WSX-1, and 1.0 μg of pCAG-human gp130. At 24 hrs after the transfection, the cells were re-seeded on 96-well plates coated with poly-L-lysine (7 ×10^3 cells/well).
(§3) F11 cells (7×10^4/well in 6-well plates) were replated into 96-well plates (7×10^3 cells/well) at 24 hrs after transfection with indicated amounts of the plasmids encoding mycHis-WSX or V5-CNTF-R, and with PCAG-human gp130 if required. […] After 6 hrs incubation, they were fixed with 4% paraformaldehyde in PBS for 30 min. After washing with PBS, cells were stained with FITC-conjugated avidin (Molecularprobe, Eugene, Oreg., USA). Immunofluorescence intensity was measured (excitation=485 nm, emission=535 nm) with a spectrofluorometer (Wallac1420 ARVOsx Multi Label Counter). Immunohistochemical analysis was done with a laser-scanning, confocal microscope LSM (Carl Zeiss, Germany).

[3] = target: T3, C-terminally myc-tagged human WSX-1 (mycHis-WSX-1) (human, UniProt Q6UWB1 33-636); assay: pull-down with HNA-Sepharose 4B from lysates of transfected F11 cells, immunoblot
T3 construct: whole, on cells; in the pull-down and co-immunoprecipitation it stood in cell lysates; also called myc-WSX-1; IL-27 receptor; not shown: C-terminal myc-His tag of the pEF-mycHis vector
T3 sequence (looked up): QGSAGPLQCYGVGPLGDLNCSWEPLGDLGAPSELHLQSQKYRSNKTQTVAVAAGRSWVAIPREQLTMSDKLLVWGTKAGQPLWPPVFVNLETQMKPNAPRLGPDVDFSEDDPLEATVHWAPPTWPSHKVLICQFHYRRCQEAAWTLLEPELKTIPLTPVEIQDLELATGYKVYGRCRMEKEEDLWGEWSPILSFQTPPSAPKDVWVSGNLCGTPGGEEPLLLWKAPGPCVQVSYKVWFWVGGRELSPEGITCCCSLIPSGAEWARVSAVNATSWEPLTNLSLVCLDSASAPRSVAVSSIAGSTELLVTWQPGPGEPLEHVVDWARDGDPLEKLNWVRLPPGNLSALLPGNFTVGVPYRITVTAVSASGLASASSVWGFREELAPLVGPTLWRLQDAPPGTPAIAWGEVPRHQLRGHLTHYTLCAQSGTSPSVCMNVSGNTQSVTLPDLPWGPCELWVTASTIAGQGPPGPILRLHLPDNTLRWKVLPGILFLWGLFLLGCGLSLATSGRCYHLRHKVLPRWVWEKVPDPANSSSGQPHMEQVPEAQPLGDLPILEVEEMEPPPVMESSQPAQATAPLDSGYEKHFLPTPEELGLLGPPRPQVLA
Procedure: as §1, §2

[4] = target: T4, C-terminally V5-tagged human CNTF-R (V5-CNTF-R) (human, UniProt P26992 23-342); assay: as above
T4 construct: whole, on cells; in the pull-down and co-immunoprecipitation it stood in cell lysates; also called human CNTF receptor; CNTF receptor alpha chain; not shown: C-terminal V5 tag
T4 sequence (looked up): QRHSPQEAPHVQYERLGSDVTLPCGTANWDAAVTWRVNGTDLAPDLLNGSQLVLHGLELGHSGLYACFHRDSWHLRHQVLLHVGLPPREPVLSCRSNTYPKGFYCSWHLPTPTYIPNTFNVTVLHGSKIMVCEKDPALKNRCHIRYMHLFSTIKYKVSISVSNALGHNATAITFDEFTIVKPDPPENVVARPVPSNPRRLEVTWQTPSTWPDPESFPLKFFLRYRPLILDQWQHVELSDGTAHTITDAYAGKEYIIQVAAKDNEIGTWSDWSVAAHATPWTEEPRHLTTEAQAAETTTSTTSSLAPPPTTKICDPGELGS
Procedure: as §1, §2

rat IL-6R [5] = target: T1, rat IL-6R; assay: as above
Procedure: as §1, §2

myc-tagged mouse CREME9 = target: T5, myc-tagged mouse CREME9 (mouse, UniProt Q9Z2L7 1-442); assay: immunofluorescence-based HN binding assay (1) on F11 cells overexpressing CREME9 and human gp130
T5 construct: whole, on cells; Methods say mouse CREME9; Co-expressed with human gp130 in F11 cells; also called CRL4; pEF-mycHis CREME9; not shown: myc-His tag
T5 sequence (looked up): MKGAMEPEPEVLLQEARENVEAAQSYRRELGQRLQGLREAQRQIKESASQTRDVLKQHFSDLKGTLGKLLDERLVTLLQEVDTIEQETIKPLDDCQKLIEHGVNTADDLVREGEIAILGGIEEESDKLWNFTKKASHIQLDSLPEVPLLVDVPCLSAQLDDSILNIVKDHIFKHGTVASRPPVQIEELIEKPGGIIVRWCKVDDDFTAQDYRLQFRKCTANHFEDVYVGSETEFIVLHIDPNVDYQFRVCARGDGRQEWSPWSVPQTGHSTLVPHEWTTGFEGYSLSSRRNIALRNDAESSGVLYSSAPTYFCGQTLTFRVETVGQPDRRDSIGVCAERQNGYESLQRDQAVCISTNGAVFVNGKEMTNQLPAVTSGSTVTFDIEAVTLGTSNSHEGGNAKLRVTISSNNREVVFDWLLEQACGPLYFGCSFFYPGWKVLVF
Procedure: B) F11 cells were transfected with 0.5 µg of pEF-myc His human CREME9 or pEF-mycHis human WSX-1 in association with 0.5 µg of pCAG-human gp130. […] Fluorescence signals were detected with a laser-scanning, confocal microscope LSM (Carl Zeiss, Germany) (right panels).
as §3

binding result (rat IL-6R [1]): no binding | binding result [2]: binds
B1: Humanin (HN) (peptide)
peptide: MAPRGFSCLLLLTSEIDLPVKRRA
notes: Synthetic 24-residue peptide; elsewhere it was used free and unlabeled; also called synthetic Humanin

binding result [3]: no binding | binding result [4]: no binding | binding result (rat IL-6R [5]): no binding
B2: C8A-Humanin (HNA) (peptide)
peptide: MAPRGFSALLLLTSEIDLPVKRRA
notes: Synthetic peptide, HN mutant with null activity used as negative control; also called C8A-HN

binding result (myc-tagged mouse CREME9): no binding (tested: 100 nM)
B3: biotin-labeled HNG-FLAG (peptide)
peptide: MAPRGFSCLLLLTGEIDLPVKRRA
modifications: also: biotin label, position not given here, FLAG tag, sequence and position not given here
notes: the identity is therefore uncertain; not shown: FLAG tag
